This assay deals with T1, human Sirt5 (human, UniProt Q9NXA8 37-310).
T1 construct: Sirt5 (sirtuin 5), human; the ESI (experimental methods) may tell them; also called sirtuin 5
T1 sequence (looked up): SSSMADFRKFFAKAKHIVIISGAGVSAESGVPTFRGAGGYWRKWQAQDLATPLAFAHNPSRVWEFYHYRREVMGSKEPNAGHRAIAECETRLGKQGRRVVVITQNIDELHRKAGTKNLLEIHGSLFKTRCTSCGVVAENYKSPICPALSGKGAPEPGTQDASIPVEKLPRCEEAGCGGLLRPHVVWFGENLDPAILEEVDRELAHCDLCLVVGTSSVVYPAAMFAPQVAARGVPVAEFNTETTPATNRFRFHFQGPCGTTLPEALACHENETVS
Nature of the assay: ITC; isothermal titration calorimetry of Sirt5 with H3K9 acyl peptides; which partner was titrated and the conditions are not told in the text shown. Particulars: both partners purified.

Starred links: 1 amine or outer side, 2 acyl side, 3 side chain; linkers in the order of their positions; H or OH if unused. No end group written: not given here. Glutaryl = O=C(CCCC(=O)[*:2])[*:1]

Results on 3 molecules are retold here after article PMC6194501, “A chemical reporter facilitates the detection and identification of lysine HMGylation on histones† †Electronic supplementary information (ESI) available: Experimental methods and figures. See DOI: 10.1039/c8sc02483a” (Chemical Science, 2018).

B1: histone H3 peptide carrying an HMG mark at Lys9 (peptide)
chain: KQTARK(HMG)STGGKA
Take B1: binding was characterised by a dissociation constant (Kd) of 61.7 µM.

B2: H3K9glu (peptide)
chain: KQTARK(Glutaryl)STGGKA
Turning to B2, the Kd was 12.6 µM.

B3: H3K9mal (peptide)
chain: ARTKQTARKSTGGKA
modifications: malonyl-lysine (Kmal) at Lys9
On to B3, for which the Kd is 35 µM.
